Where two headings read alike, the source gives them in different places.
Columns and labels:
[1] = FP purification and fluorescence characterization in vitro (spectra, extinction coefficient, quantum yield); type: physicochemical
Procedure, shortened: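 His-tagged FPs expressed in E. coli with PCB or BV and Ni-NTA purified; apoproteins loaded in vitro with chromophore in PBS+10% FBS at 37 °C overnight. Extinction coefficient from BV absorbance at 390 nm or BCA protein assay; quantum yield relative to Cy5; photobleaching normalised to 1,000 photons/molecule/s.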

HEK293A cells = test: FP stability in HEK293A cells (cycloheximide); type: cell-based; settings: for fold increase in smURFP fluorescence: HEK293A
Procedure: HEK293A cells were transfected with pCDNA3-smURFP-IRES-eGFP and incubated for 48 h. 50 μg/ml cycloheximide+25 μM BV, 5 μM BVMe2, or no chromophore was added and cells were imaged after 1, 10, 30, 60, 120, and 225 min. Fluorescence was fit to a single exponential decay (F=A [exp^−kt]), where F is fluorescence that varies as a function of time, A is the fit initial fluorescence, k is the rate of fluorescence decay (protein degradation), and t is time in min.

HT1080 tumor xenografts = test: Fluorescence imaging of HT1080 tumor xenografts in vivo; design: species or system mice
Excerpt: HT1080 cells were infected with CMV with smURFP-T2A-mCherry, smURFP-T2A-mCardinal, smURFP, and mCardinal lentiviruses in culture, and expression was verified by fluorescence imaging (FIG. 19a, ≥99% efficiency and FIG. 20a, ≥95% efficiency) using filters described in the previous section. All procedures using mice were approved by UCSD IACUC (#S03172M) and are consistent with the recommendations of the American Veterinary Medical Association. One million HT1080 cells expressing smURFP-T2A-mCherry were injected subcutaneously into the lateral, ventral, and upper right and left quadrant, or smURFP and mCardinal were injected subcutaneously into the lateral, dorsal, and lower right and left quadrant of four 5-week-old athymic nude female mice. Tumors were allowed to grow until ˜0.1-1 cm in diameter (˜2 weeks). Mice were anesthetized with isoflurane (1.5%) at a 2 liter/min flow, injected with ketamine-midazolam (intraperitoneal (IP), 80 mg/kg, 4 mg/kg), placed on a heated pad, and imaged before exogenous BV injection. 250 nmol BV was injected by intravenous (IV) tail vein, and mice were imaged 5, 30, 60, and 120 min after BV injection for smURFP-T2A-mCherry. 250 nmol BV or BVMe2 was injected by intravenous tail vein, and mice were imaged 60 min, 24 h, and 48 h after BV injection for smURFP and mCardinal tumors. Mice were imaged using a Maestro in vivo Imaging System (Cambridge Research & Instrumentation, CRI). FPs were imaged with the following filters: mCherry, EX/EM=590(23)/615LP nm and liquid crystal, 620 nm; mCardinal EX/EM=607(36)645LP nm and liquid crystal, 660 nm; and smURFP EX/EM=620(20)/645LP nm or EX/EM=640(47)/700LP and liquid crystal, 710 nm. […] Tumors were removed, washed 2× in 2 ml DMEM+10% FBS, labeled in 2 ml DMEM+10% FBS+10 μM BV or BVMe2 at 4° C. for 24 h, imaged, labeled in 2 ml DMEM+10% FBS+10 μM BV or BVMe2 at 37° C. for 24 h, and imaged (FIG. 20g).

[2] = smURFP/TDsmURFP + 1 or 2 chromophore, Table 7

B1: smURFP: small ultra-red fluorescent protein, SEQ ID NO: 13, homodimer, covalently attaches biliverdin (protein)
chain: MKTSEQRVNIATLLTENKKKIVDKASQDLWRRHPDLIAPGGIAFSQRDRALCLRDYGWFLHLITFCLLAGDKGPIESIGLISIREMYNSLGVPVPAMMESIRCLKEASLSLLDEEDANETAPYFDYIIKAMS
modifications: homodimer; biliverdin chromophore; smRUFP Variant Polypeptide
In the case of B1, the Emission Maximum [1] is reported as 670 nm, the “extinction coefficient (EC)” value [1] is reported as 180,000 M^−1cm^−1 and the “increase of BV QY after covalent attachment to smURFP” value [1] is reported as ~1,400 fold. The “quantum yield (QY)” value [1] was 18%, the “Molecular Brightnes Relative to smURFP” value ([1]; Table 4) was 100% and the Emission Maximum ([1]; Table 5) was 670 nm. The Excitation Maximum ([1]; Table 5) was 642 nm, the Extinction Coefficient ([1]; Table 5) was 180,000 ^ m^−1cm^−1/chromophore and the Quantum Yield ([1]; Table 5) was 18%. For the same molecule, the “molecular brightness relative to eGFP” value ([1]; Table 5) was 96%, the Quantum Yield ([1]; b72, as fraction) was 0.20 and the “brightness relative to most red or far-red fluorescent proteins derived from coral” value ([1]; biophysical brightness) was about 2 fold. For the same molecule, the “Emission Maximum” value ([1]; evolved APCα FPs, Table 4) was 670 nm, the “Excitation Maximum” value ([1]; evolved APCα FPs, Table 4) was 642 nm and the “Extinction Coefficient” value ([1]; evolved APCα FPs, Table 4) was 180,000 M^−1 cm^−1. For the same molecule, the “Quantum Yield” value ([1]; evolved APCα FPs, Table 4) was 18%, the “excitation (absorption) maximum” value ([1]; running text and figure legends) was 642 nm and the “Emission Maximum” value [1, 2] was 670 nm. For the same molecule, the “Excitation Maximum” value [1, 2] was 642 nm, the “Extinction Coefficient” value [1, 2] was 180,000 M^−1 cm^−1 and the “Quantum Yield” value [1, 2] was 18%. For the same molecule, the “fold increase in smURFP fluorescence” value (HEK293A cells; 5 μM BVMe2, 1 h) was 85 fold, the “fold increase in smURFP fluorescence” value (HEK293A cells; 5 μM BVMe2, 3 h) was 85 fold and the “fold increase in smURFP fluorescence” value (HEK293A cells; 5 μM BVMe2, 48 h) was 125 fold. The “fold increase in smURFP fluorescence” value (HEK293A cells; 25 μM BV, 3 h) was 13 fold, the “fold increase in smURFP fluorescence” value (HEK293A cells; 25 μM BV, 48 h) was 27 fold and the “protein stability t50%” value (HEK293A cells; BV exposure 3 h) was 30 h. The “protein stability t50%” value (HEK293A cells; BVMe2 exposure 3 h) was 33 h, the “protein stability t50%” value (HEK293A cells; HEK293A cells, cycloheximide) was 33 h and the “protein stability t50%” value (HEK293A cells; continuously exposed to BV, cycloheximide) was 33 h. For the same molecule, the “protein stability t50%” value (HEK293A cells; continuously exposed to BVMe2, cycloheximide) was 35 h, the “protein stability t50%” value (HEK293A cells; without chromophore (apoprotein)) was 17 h and the “fluorescence change after 250 nmol BV intravenously” value (HT1080 tumor xenografts; after 2 h) was “no increase in fluorescence”. The “fold dimmer than mCardinal in vivo” value (HT1080 tumor xenografts; at 607 nm) was about 7.3 fold, the “fold dimmer than mCardinal in vivo” value (HT1080 tumor xenografts; at 640 nm) was about 4 fold and the “fluorescence of excised tumors with 10 μM BV or BVMe2” value (HT1080 tumor xenografts; ex vivo) was “enhanced fluorescence”. For the same molecule, the “fluorescence in tumor xenografts without exogenous BV” value (HT1080 tumor xenografts; mouse, in vivo) was “visible without exogenous BV”, the “loss of fluorescence through the skin” value (HT1080 tumor xenografts; mouse, in vivo) was 25% and the “fluorescence change after injection of 250 nmol BV or BVMe2” value (HT1080 tumor xenografts; smURFP vs mCardinal tumors) was “no increase in fluorescence in vivo”. For the same molecule, the “fluorescence intensity relative to mCherry in vivo” value (HT1080 tumor xenografts; without exogenous BV) was 35%.

B2: smURFP + BVMe2: smURFP with a single biliverdin dimethyl ester chromophore (protein)
chain: MKTSEQRVNIATLLTENKKKIVDKASQDLWRRHPDLIAPGGIAFSQRDRALCLRDYGWFLHLITFCLLAGDKGPIESIGLISIREMYNSLGVPVPAMMESIRCLKEASLSLLDEEDANETAPYFDYIIKAMS
modifications: left off: small tags and cut ends
notes: smURFP with a single biliverdin dimethyl ester chromophore
With B2 the Emission Maximum ([1]; Table 5) was 672 nm, the Excitation Maximum ([1]; Table 5) was 646 nm and the Extinction Coefficient ([1]; Table 5) was 65,000^ m^−1cm^−1/chromophore. For the same molecule, the Quantum Yield ([1]; Table 5) was 12%, the “molecular brightness relative to eGFP” value ([1]; Table 5) was 23% and the “Emission Maximum” value [1, 2] was 672 nm. For the same molecule, the “Excitation Maximum” value [1, 2] was 646 nm, the “Extinction Coefficient” value [1, 2] was 65,000 M^−1 cm^−1 and the “Quantum Yield” value [1, 2] was 12%. The “protein stability t50%” value (HEK293A cells; HEK293A cells, cycloheximide) was 35 h.
